doi:10.1101/2024.03.24.586400 (bioRxiv, 2024)
Blank lines part the entries; values can stand above or below the molecule they belong to. No end group written: not given here.

Key:
Assay in all cases: grating-coupled interferometry
[1] = target: TREX-2^M, minimal recombinant TREX-2 complex (GANP Sac3 domain residues 582-1004, PCID2, SEM1) (human) (UniProt O60318)
[2] = target: SARNP UCM-1 and UCM-4 peptides
[3] = target: SARNP UCM-1 peptide (GCI) (human)
[4] = target: UAP56 (DDX39B), recombinant wild type (human, UniProt Q13838 1-428)
UAP56 (DDX39B), recombinant wild type (human, UniProt Q13838 1-428), sequence (Q13838 whole entry): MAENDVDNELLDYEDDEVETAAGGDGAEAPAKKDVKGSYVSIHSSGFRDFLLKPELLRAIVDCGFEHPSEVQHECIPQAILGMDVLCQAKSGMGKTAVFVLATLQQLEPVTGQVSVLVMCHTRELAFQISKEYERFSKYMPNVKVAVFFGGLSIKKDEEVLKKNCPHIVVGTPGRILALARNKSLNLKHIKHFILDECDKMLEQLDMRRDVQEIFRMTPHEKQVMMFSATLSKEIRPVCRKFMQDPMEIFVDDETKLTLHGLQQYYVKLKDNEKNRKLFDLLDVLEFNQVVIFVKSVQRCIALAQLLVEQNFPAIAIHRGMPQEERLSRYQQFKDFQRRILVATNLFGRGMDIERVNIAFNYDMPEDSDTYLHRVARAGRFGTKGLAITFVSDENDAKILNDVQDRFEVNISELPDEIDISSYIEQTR

UAP56 (DDX39B), recombinant wild type (from UniProt Q13838 1-428) (enzyme), sequence (Q13838 whole entry): as above
TREX-2^M, minimal recombinant TREX-2 complex (GANP Sac3 domain residues 582-1004, PCID2, SEM1) (human), sequence (O60318 582-1004, chain 1 of 3): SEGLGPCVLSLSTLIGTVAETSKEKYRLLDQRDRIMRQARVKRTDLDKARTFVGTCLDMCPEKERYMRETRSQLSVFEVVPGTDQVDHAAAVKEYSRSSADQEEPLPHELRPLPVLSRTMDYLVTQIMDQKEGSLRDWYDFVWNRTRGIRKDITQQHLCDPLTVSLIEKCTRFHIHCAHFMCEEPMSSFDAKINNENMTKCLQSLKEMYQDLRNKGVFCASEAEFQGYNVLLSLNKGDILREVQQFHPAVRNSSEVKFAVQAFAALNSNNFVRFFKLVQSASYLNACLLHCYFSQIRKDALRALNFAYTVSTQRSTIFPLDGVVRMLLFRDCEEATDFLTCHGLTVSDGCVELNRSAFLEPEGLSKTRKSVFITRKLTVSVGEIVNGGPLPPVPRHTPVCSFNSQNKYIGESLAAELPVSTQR
TREX-2^M, minimal recombinant TREX-2 complex (GANP Sac3 domain residues 582-1004, PCID2, SEM1) (human), sequence (Q5JVF3 whole entry, chain 2 of 3, further chain, the tested form may be a part): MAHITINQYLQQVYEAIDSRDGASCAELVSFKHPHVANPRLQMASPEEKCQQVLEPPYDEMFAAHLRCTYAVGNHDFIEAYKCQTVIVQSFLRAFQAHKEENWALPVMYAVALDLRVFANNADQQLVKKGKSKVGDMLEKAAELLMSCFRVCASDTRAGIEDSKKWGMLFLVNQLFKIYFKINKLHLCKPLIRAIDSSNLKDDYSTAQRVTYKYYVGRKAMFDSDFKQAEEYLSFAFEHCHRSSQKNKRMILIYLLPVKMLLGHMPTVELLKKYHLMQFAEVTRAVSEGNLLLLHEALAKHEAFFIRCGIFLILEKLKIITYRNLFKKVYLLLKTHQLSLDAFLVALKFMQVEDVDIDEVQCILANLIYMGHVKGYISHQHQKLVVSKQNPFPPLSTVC
TREX-2^M, minimal recombinant TREX-2 complex (GANP Sac3 domain residues 582-1004, PCID2, SEM1) (human), sequence (P60896 whole entry, chain 3 of 3, further chain, the tested form may be a part): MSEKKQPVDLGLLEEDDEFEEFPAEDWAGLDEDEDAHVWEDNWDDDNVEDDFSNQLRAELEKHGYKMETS

Kd [1]: 0.17 µM
Molecule: UAP56 lacking residues 1-28 (from UniProt Q13838 28-428) (domain or fragment)

Kd [2]: 10 to 20 µM | Kd [3]: 12 µM
Molecule: UAP56 (DDX39B), recombinant wild type (from UniProt Q13838 1-428) (enzyme)

Kd [4]: 24 µM
Molecule: MDMSLDDII (also: biotin, position not given here) [ALYREF N-UBM peptide (GCI)]
